# Reference: US20220298218A1 (ANTAG THERAPEUTICS, published 2022)
# *1 amine or outer side, *2 acyl side, *3 side chain or, on linkers, in order; H or OH if unused. Where no end group is shown, it is not given here. Side-chain parts run from the residue outwards. The star is where a group is joined. C16 diacid = O=C(O)CCCCCCCCCCCCCCC(=O)*; γGlu = O=C(O)[C@H](CCC(=O)[*:2])N[*:1]; AEEA = NCCOCCOCC(=O)O
# Molecular target: T1, human GIP receptor (human, UniProt P48546 22-466)
# T1 sequence (looked up): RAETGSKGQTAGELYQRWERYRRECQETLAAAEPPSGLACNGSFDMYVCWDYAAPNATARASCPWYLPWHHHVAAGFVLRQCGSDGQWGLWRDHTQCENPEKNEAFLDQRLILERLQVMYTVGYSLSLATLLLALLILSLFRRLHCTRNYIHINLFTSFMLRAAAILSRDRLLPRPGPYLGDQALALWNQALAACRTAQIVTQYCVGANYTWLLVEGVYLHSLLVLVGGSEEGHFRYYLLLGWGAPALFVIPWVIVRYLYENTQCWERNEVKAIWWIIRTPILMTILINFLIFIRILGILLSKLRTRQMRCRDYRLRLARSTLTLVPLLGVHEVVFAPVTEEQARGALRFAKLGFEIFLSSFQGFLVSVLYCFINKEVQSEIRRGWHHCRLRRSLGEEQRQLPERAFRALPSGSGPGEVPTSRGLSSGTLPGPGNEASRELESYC
# Assay: cell-based or functional assay
binder,measurement,value
FISDYSIAMDKIK(C16 diacid)QQDFVNWLLAQKGKK-OH (N-terminus assumed; SMILES CC[C@H](C)[C@H](NC(=O)[C@H](CO)NC(=O)[C@H](Cc1ccc(O)cc1)NC(=O)[C@H](CC(=O)O)NC(=O)[C@H](CO)NC(=O)[C@@H](NC(=O)[C@@H](N)Cc1ccccc1)[C@@H](C)CC)C(=O)N[C@@H](C)C(=O)N[C@@H](CCSC)C(=O)N[C@@H](CC(=O)O)C(=O)N[C@@H](CCCCN)C(=O)N[C@H](C(=O)N[C@@H](CCCCNC(=O)CCCCCCCCCCCCCCC(=O)O)C(=O)N[C@@H](CCC(N)=O)C(=O)N[C@@H](CCC(N)=O)C(=O)N[C@@H](CC(=O)O)C(=O)N[C@@H](Cc1ccccc1)C(=O)N[C@H](C(=O)N[C@@H](CC(N)=O)C(=O)N[C@@H](Cc1c[nH]c2ccccc12)C(=O)N[C@@H](CC(C)C)C(=O)N[C@@H](CC(C)C)C(=O)N[C@@H](C)C(=O)N[C@@H](CCC(N)=O)C(=O)N[C@@H](CCCCN)C(=O)NCC(=O)N[C@@H](CCCCN)C(=O)N[C@@H](CCCCN)C(=O)O)C(C)C)[C@@H](C)CC) [AT463],cAMP antagonism,14 nM
same,cAMP antagonism % inhib,88%
same,cAMP antagonism log,-7.8 log M
"TFISDYKIAMDKIHQQDFVNWLLAQKGKKNDWKHNIT (HELM PEPTIDE1{T.F.I.S.D.Y.K.I.A.M.D.K.I.H.Q.Q.D.F.V.N.W.L.L.A.Q.K.G.K.K.N.D.W.K.H.N.I.T}|PEPTIDE2{[O=C(O)CCCCCCCCCCCCCCC(=O)[*:2]].[gGlu]}$PEPTIDE1,PEPTIDE2,7:R3-2:R2$$$V2.0; N-terminus assumed; SMILES CC[C@H](C)[C@H](NC(=O)[C@H](CCCCNC(=O)CC[C@H](NC(=O)CCCCCCCCCCCCCCC(=O)O)C(=O)O)NC(=O)[C@H](Cc1ccc(O)cc1)NC(=O)[C@H](CC(=O)O)NC(=O)[C@H](CO)NC(=O)[C@@H](NC(=O)[C@H](Cc1ccccc1)NC(=O)[C@@H](N)[C@@H](C)O)[C@@H](C)CC)C(=O)N[C@@H](C)C(=O)N[C@@H](CCSC)C(=O)N[C@@H](CC(=O)O)C(=O)N[C@@H](CCCCN)C(=O)N[C@H](C(=O)N[C@@H](Cc1c[nH]cn1)C(=O)N[C@@H](CCC(N)=O)C(=O)N[C@@H](CCC(N)=O)C(=O)N[C@@H](CC(=O)O)C(=O)N[C@@H](Cc1ccccc1)C(=O)N[C@H](C(=O)N[C@@H](CC(N)=O)C(=O)N[C@@H](Cc1c[nH]c2ccccc12)C(=O)N[C@@H](CC(C)C)C(=O)N[C@@H](CC(C)C)C(=O)N[C@@H](C)C(=O)N[C@@H](CCC(N)=O)C(=O)N[C@@H](CCCCN)C(=O)NCC(=O)N[C@@H](CCCCN)C(=O)N[C@@H](CCCCN)C(=O)N[C@@H](CC(N)=O)C(=O)N[C@@H](CC(=O)O)C(=O)N[C@@H](Cc1c[nH]c2ccccc12)C(=O)N[C@@H](CCCCN)C(=O)N[C@@H](Cc1c[nH]cn1)C(=O)N[C@@H](CC(N)=O)C(=O)N[C@H](C(=O)N[C@H](C(=O)O)[C@@H](C)O)[C@@H](C)CC)C(C)C)[C@@H](C)CC) [AT462]",cAMP antagonism,37 nM
same,cAMP antagonism % inhib,85%
same,cAMP antagonism log,-7.4 log M
FISDYSIAMDKIK(C16 diacid)QQDFVNWLLAQKGKKNDWKHNITQ-OH (N-terminus assumed; SMILES CC[C@H](C)[C@H](NC(=O)[C@H](CO)NC(=O)[C@H](Cc1ccc(O)cc1)NC(=O)[C@H](CC(=O)O)NC(=O)[C@H](CO)NC(=O)[C@@H](NC(=O)[C@@H](N)Cc1ccccc1)[C@@H](C)CC)C(=O)N[C@@H](C)C(=O)N[C@@H](CCSC)C(=O)N[C@@H](CC(=O)O)C(=O)N[C@@H](CCCCN)C(=O)N[C@H](C(=O)N[C@@H](CCCCNC(=O)CCCCCCCCCCCCCCC(=O)O)C(=O)N[C@@H](CCC(N)=O)C(=O)N[C@@H](CCC(N)=O)C(=O)N[C@@H](CC(=O)O)C(=O)N[C@@H](Cc1ccccc1)C(=O)N[C@H](C(=O)N[C@@H](CC(N)=O)C(=O)N[C@@H](Cc1c[nH]c2ccccc12)C(=O)N[C@@H](CC(C)C)C(=O)N[C@@H](CC(C)C)C(=O)N[C@@H](C)C(=O)N[C@@H](CCC(N)=O)C(=O)N[C@@H](CCCCN)C(=O)NCC(=O)N[C@@H](CCCCN)C(=O)N[C@@H](CCCCN)C(=O)N[C@@H](CC(N)=O)C(=O)N[C@@H](CC(=O)O)C(=O)N[C@@H](Cc1c[nH]c2ccccc12)C(=O)N[C@@H](CCCCN)C(=O)N[C@@H](Cc1c[nH]cn1)C(=O)N[C@@H](CC(N)=O)C(=O)N[C@H](C(=O)N[C@H](C(=O)N[C@@H](CCC(N)=O)C(=O)O)[C@@H](C)O)[C@@H](C)CC)C(C)C)[C@@H](C)CC) [AT466],cAMP antagonism,16 nM
same,cAMP antagonism % inhib,90%
same,cAMP antagonism log,-7.8 log M
SGTFISDYSIAMDRIK([AEEA-AEEA-AEEA-γGlu-C16 diacid])QQDFVNWLLAQRGRRNDW-OH (N-terminus assumed; SMILES CC[C@H](C)[C@H](NC(=O)[C@H](CO)NC(=O)[C@H](Cc1ccc(O)cc1)NC(=O)[C@H](CC(=O)O)NC(=O)[C@H](CO)NC(=O)[C@@H](NC(=O)[C@H](Cc1ccccc1)NC(=O)[C@@H](NC(=O)CNC(=O)[C@@H](N)CO)[C@@H](C)O)[C@@H](C)CC)C(=O)N[C@@H](C)C(=O)N[C@@H](CCSC)C(=O)N[C@@H](CC(=O)O)C(=O)N[C@@H](CCCNC(=N)N)C(=O)N[C@H](C(=O)N[C@@H](CCCCNC(=O)COCCOCCNC(=O)COCCOCCNC(=O)COCCOCCNC(=O)CC[C@H](NC(=O)CCCCCCCCCCCCCCC(=O)O)C(=O)O)C(=O)N[C@@H](CCC(N)=O)C(=O)N[C@@H](CCC(N)=O)C(=O)N[C@@H](CC(=O)O)C(=O)N[C@@H](Cc1ccccc1)C(=O)N[C@H](C(=O)N[C@@H](CC(N)=O)C(=O)N[C@@H](Cc1c[nH]c2ccccc12)C(=O)N[C@@H](CC(C)C)C(=O)N[C@@H](CC(C)C)C(=O)N[C@@H](C)C(=O)N[C@@H](CCC(N)=O)C(=O)N[C@@H](CCCNC(=N)N)C(=O)NCC(=O)N[C@@H](CCCNC(=N)N)C(=O)N[C@@H](CCCNC(=N)N)C(=O)N[C@@H](CC(N)=O)C(=O)N[C@@H](CC(=O)O)C(=O)N[C@@H](Cc1c[nH]c2ccccc12)C(=O)O)C(C)C)[C@@H](C)CC) [AT424],cAMP antagonism,35 nM
same,cAMP antagonism % inhib,100%
same,cAMP antagonism log,-7.5 log M
FISDYSIAMDKIK(C16 diacid)QQDFVNWLLAQKGKKNDW-OH (N-terminus assumed; SMILES CC[C@H](C)[C@H](NC(=O)[C@H](CO)NC(=O)[C@H](Cc1ccc(O)cc1)NC(=O)[C@H](CC(=O)O)NC(=O)[C@H](CO)NC(=O)[C@@H](NC(=O)[C@@H](N)Cc1ccccc1)[C@@H](C)CC)C(=O)N[C@@H](C)C(=O)N[C@@H](CCSC)C(=O)N[C@@H](CC(=O)O)C(=O)N[C@@H](CCCCN)C(=O)N[C@H](C(=O)N[C@@H](CCCCNC(=O)CCCCCCCCCCCCCCC(=O)O)C(=O)N[C@@H](CCC(N)=O)C(=O)N[C@@H](CCC(N)=O)C(=O)N[C@@H](CC(=O)O)C(=O)N[C@@H](Cc1ccccc1)C(=O)N[C@H](C(=O)N[C@@H](CC(N)=O)C(=O)N[C@@H](Cc1c[nH]c2ccccc12)C(=O)N[C@@H](CC(C)C)C(=O)N[C@@H](CC(C)C)C(=O)N[C@@H](C)C(=O)N[C@@H](CCC(N)=O)C(=O)N[C@@H](CCCCN)C(=O)NCC(=O)N[C@@H](CCCCN)C(=O)N[C@@H](CCCCN)C(=O)N[C@@H](CC(N)=O)C(=O)N[C@@H](CC(=O)O)C(=O)N[C@@H](Cc1c[nH]c2ccccc12)C(=O)O)C(C)C)[C@@H](C)CC) [AT464],cAMP antagonism,50 nM
same,cAMP antagonism % inhib,100%
same,cAMP antagonism log,-7.3 log M
FISDYSIAMDKIK(C16 diacid)QQDFVNWLLAQKGKKNDWKHN-OH (N-terminus assumed; SMILES CC[C@H](C)[C@H](NC(=O)[C@H](CO)NC(=O)[C@H](Cc1ccc(O)cc1)NC(=O)[C@H](CC(=O)O)NC(=O)[C@H](CO)NC(=O)[C@@H](NC(=O)[C@@H](N)Cc1ccccc1)[C@@H](C)CC)C(=O)N[C@@H](C)C(=O)N[C@@H](CCSC)C(=O)N[C@@H](CC(=O)O)C(=O)N[C@@H](CCCCN)C(=O)N[C@H](C(=O)N[C@@H](CCCCNC(=O)CCCCCCCCCCCCCCC(=O)O)C(=O)N[C@@H](CCC(N)=O)C(=O)N[C@@H](CCC(N)=O)C(=O)N[C@@H](CC(=O)O)C(=O)N[C@@H](Cc1ccccc1)C(=O)N[C@H](C(=O)N[C@@H](CC(N)=O)C(=O)N[C@@H](Cc1c[nH]c2ccccc12)C(=O)N[C@@H](CC(C)C)C(=O)N[C@@H](CC(C)C)C(=O)N[C@@H](C)C(=O)N[C@@H](CCC(N)=O)C(=O)N[C@@H](CCCCN)C(=O)NCC(=O)N[C@@H](CCCCN)C(=O)N[C@@H](CCCCN)C(=O)N[C@@H](CC(N)=O)C(=O)N[C@@H](CC(=O)O)C(=O)N[C@@H](Cc1c[nH]c2ccccc12)C(=O)N[C@@H](CCCCN)C(=O)N[C@@H](Cc1c[nH]cn1)C(=O)N[C@@H](CC(N)=O)C(=O)O)C(C)C)[C@@H](C)CC) [AT465],cAMP antagonism,28 nM
same,cAMP antagonism % inhib,86%
same,cAMP antagonism log,-7.6 log M
